The source of these data is patent publication US20260265394A1 (CARTESIAN THERAPEUTICS, published 2026).

In test [1] the target is T1, soluble BCMA (UniProt Q02223 1-54, limits assumed).
T1 sequence (looked up): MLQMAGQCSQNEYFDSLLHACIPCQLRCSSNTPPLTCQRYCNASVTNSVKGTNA
The experiment in a line: titration, '% of Max Binding' against 'Log Conc (nM)'; apparent affinity of anti-BCMA CAR to soluble BCMA; the text does not describe the assay.

Test [2] concerns the target T1, soluble BCMA. The experiment in a line: apparent affinity of anti-BCMA CAR to soluble BCMA (FIG. 10A); method not described.

B1: anti-BCMA scFv1 (as CAR), Example 16 (scFv)
scFv: DIVLTQSPPSLAMSLGKRATISCRASESVTILGSHLIHWYQQKPGQPPTLLIQLASNVQTGVPARFSGSGSRTDFTLTIDPVEEDDVAVYYCLQSRTIPRTFGGGTKLEIKGSTSGSGKPGSGEGSTKGQIQLVQSGPELKKPGETVKISCKASGYTFTDYSINWVKRAPGKGLKWMGWINTETREPAYAYDFRGRFAFSLETSASTAYLQINNLKYEDTATYFCALDYSYAMDYWGQGTSVTVSS
Take B1: the 50% effective concentration (EC50 (read off the curve)) with soluble BCMA [1] is around 10 nM. In addition, the Kd with soluble BCMA [2] turned out to be 3.2 nM.

By EC50 (read off the curve) is commonly meant the concentration that produces a half-maximal response.
